This note sets out measurements from paper PMC8213733, “Subtype-specific collaborative transcription factor networks are promoted by OCT4 in the progression of prostate cancer” (Nature Communications, 2021).

The experiment deals with T1, Flag-AR (human (cDNA of PC cells, said of the …, UniProt P10275 1-920)).
T1 construct: androgen receptor, full length in Flag-tagged pcDNA3.0; also called androgen receptor; source: 293T, transfected, cells treated with 10 nM DHT or vehicle, purified (Flag M2 agarose beads, glycine elution)
T1 sequence (looked up): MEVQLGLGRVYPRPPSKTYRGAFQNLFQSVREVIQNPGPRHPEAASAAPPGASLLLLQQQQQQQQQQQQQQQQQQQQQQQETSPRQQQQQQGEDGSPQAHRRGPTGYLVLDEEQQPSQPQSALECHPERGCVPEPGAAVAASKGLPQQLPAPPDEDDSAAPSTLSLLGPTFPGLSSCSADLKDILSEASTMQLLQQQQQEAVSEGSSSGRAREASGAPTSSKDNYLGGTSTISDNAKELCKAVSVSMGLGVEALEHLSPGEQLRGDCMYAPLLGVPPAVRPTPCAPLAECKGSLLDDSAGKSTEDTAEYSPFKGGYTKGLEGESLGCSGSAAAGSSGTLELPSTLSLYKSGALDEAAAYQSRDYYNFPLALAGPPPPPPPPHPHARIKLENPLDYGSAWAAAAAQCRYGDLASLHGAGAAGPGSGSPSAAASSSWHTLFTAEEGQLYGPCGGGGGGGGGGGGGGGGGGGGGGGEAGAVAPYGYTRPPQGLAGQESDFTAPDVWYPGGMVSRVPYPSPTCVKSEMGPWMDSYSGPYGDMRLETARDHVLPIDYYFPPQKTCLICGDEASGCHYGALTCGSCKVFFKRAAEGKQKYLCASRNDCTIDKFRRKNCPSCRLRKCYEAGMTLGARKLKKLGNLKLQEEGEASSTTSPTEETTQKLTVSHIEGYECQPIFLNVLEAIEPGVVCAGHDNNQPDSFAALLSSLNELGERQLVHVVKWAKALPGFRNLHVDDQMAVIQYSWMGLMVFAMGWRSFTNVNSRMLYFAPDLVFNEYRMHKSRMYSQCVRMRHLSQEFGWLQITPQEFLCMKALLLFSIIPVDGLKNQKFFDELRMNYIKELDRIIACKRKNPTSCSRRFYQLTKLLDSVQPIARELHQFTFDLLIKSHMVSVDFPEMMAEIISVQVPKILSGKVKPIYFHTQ
The experiment can be described thus: co-IP; in vitro binding assay: purified proteins in 20 mM Tris-HCl pH 7.5, 150 mM NaCl, 0.1% Triton X-100, 1 mM DTT, 4 °C, 5 h; FOXA1 immunoprecipitated, bound proteins by western blot; with or without ribavirin-phosphate. Conditions: both partners purified. (In general: Immunoblotting shows a protein as a band on a membrane.)

B1: Flag-FOXA1 (natural protein, UniProt P55317 1-472, looked up)
chain: MLGTVKMEGHETSDWNSYYADTQEAYSSVPVSNMNSGLGSMNSMNTYMTMNTMTTSGNMTPASFNMSYANPGLGAGLSPGAVAGMPGGSAGAMNSMTAAGVTAMGTALSPSGMGAMGAQQAASMNGLGPYAAAMNPCMSPMAYAPSNLGRSRAGGGGDAKTFKRSYPHAKPPYSYISLITMAIQQAPSKMLTLSEIYQWIMDLFPYYRQNQQRWQNSIRHSLSFNDCFVKVARSPDKPGKGSYWTLHPDSGNMFENGCYLRRQKRFKCEKQPGAGGGGGSGSGGSGAKGGPESRKDPSGASNPSADSPLHRGVHGKTGQLEGAPAPGPAASPQTLDHSGATATGGASELKTPASSTAPPISSGPGALASVPASHPAHGLAPHESQLHLKGDPHYSFNHPFSINNLMSSSEQQHKLDFKAYEQALQYSPYGSTLPASLPLGSASVTTRSPIEPSALEPAYYQGVYSRPVLNTS
notes: FOXA1, full length in Flag-tagged pcDNA3.0; source: 293T, transfected, purified (Flag M2 agarose beads, glycine elution)
As for B1, the binding result is on record as “binds”.
